Test results: patent US20230257435A1, “Wound Healing Composition and Uses Thereof” (AGENCY FOR SCIENCE, TECHNOLOGY AND RESEARCH, priority 2020, published 2023)
Entries after “also recorded” stand apart in the source; their conditions may differ.

Assays:
[1] = system: primary mouse keratinocytes over dermal fibroblasts; assay: 3D-stiffness dependent keratinocyte fibroblast co-culture migration assay; format: cell-based; conditions: 10 μg/ml sAgrin
Text: A 3D in-vitro wound healing model was created using collagen constructs of defined stiffness modifying a previously published protocol. Collagen constructs were made with Col-T-gel (0.8 KPa-soft) or (30 KPa-stiff) as per manufacturer's recommended protocol containing 300,000 primary mouse dermal fibroblasts (DFs). For some experiments, siControl and siAgrin treated DFs were incorporated within soft or stiff collagen constructs. The constructs bearing fibroblasts were allowed to solidify for 45 min inside incubator. A second layer of collagen matching the stiffness of the underneath layer was added containing 350,000 of primary mouse keratinocytes (KRTs) and the construct was allowed to solidify for 3-4 h. After removing excess media, the constructs were washed gently with 1×PBS twice. An upside down 2μ pipette tip was inserted and gently rotated at the center of the constructs to create a circular wound. The collagen and cells was quickly removed from the wound area and replaced with 40 μl of soft or stiff Col-T-gel matching the consistency and set-up of the constructs. The resultant wounded constructs were placed inside the incubator and imaged after 30 min for day 0 time-points. The migratory keratinocytes were imaged till day 5 post-wounding.

[2] = system: MMP12; assay: MMP12 activity assay (gelatin and casein zymography); format: cell-based, human; conditions: Agrin silenced keratinocytes, increasing dose of sAgrin 24 h
Description: MMP12 activity were monitored via Gelatin and Casein zymography as per previously published protocols. Briefly, control or Agrin depleted HaCaT cells were grown till 80-90% confluency in media without FBS. Supernatants collected from each culture dish were spun down at 10,000 rpm for 5 min and concentrated using Amicon ultra columns. Twenty microliter of medium was mixed with 2×SDS loading buffer and loaded on 10% gelatin or casein gel. The gels were washed with incubation buffer and subsequently stained with Coomassie Brilliant Blue for 1 h. The gels were de-stained for 30 min before imaging using a Chemidoc imager.

[3] = system: HaCaT cells; assay: Collective migration on soft/stiff substrates (stencil barrier); format: cell-based, human
Description: Tissue culture plates were coated with Col-T-gel (Fischer Scientific) of stiffness ranging from 0.8 KPa (soft) to 30 KPa (stiff) as per manufacturer recommendations and allowed to solidify for 40 min at 37° C. inside tissue culture incubators. Some experiments were performed with cells seeded on the poly-hydrogel plates of defined stiffness: 0.2 kPa and 16 kPa soft and hard polyhydrogels, respectively (CytoSoft, Advanced Biomatrix, Inc.,). The determination of stiffness of silicone substrates were done by the manufacturer as per previously published protocols. For certain experiments, indicated amounts of sAgrin was incorporated into the 0.8 KPa collagen gels before gelation process. Upon gelation, trypsinized cells or excised mouse skin explants were plated onto the gels of different stiffness either alone or containing sAgrin. The cells/tissues were incubated under standard culture condition with 500 μl recommended culture medium for the indicated days. The crossbow shaped micropatterns with fibronectin coated islands were generated by microlithography on a 19.5×19.5 mm coverslide from Cytoo, Inc., France. The micropatterns had surface areas of 800μ^2 or 1600μ^2, respectively. Fifty thousand cells after initial siRNA treatment was placed on the micropatterns for 4-6 h before processing them for immunofluorescence. For some experiments, 10 μg/ml sAgrin was added on the slides 18 h prior to the addition of cells.
A confluent monolayer of control and Agrin depleted cells in a 6-well plate was subjected to a unidirectional scratch using a 20 μl pipette tip. This was followed by washing with 1×PBS at room temperature and incubation in complete culture media at 37° C. and 5% CO2 with or without sAgrin used as indicated. Phase contrast images of the wound area were taken periodically at the indicated time-points. For some wound-healing migration assays, keratinocytes were cultured on either soft or stiff substrates within a stencil barrier (Nalge Nunc., Inc) for 18 h. Upon removal of the barrier, the cells were allowed to migrate and imaged using an Axiovert 200 inverted microscope at indicated time-points.

[4] = system: human skin explants; assay: Human skin explant (EPIDERM-FT) punch wound healing; format: cell-based; conditions: explants treated with Agrin siRNA #1; 20 μg sAgrin in ointment on days 2, 4, 6
Text: Human epidermal keratinocyte cell line HaCaT was maintained in Dulbecco's modified Eagle's Medium (DMEM) (Gibco) containing 10% fetal bovine serum (FBS) with Penicillin and Streptomycin (Gibco Cat #15140148) antibiotics. The human foreskin normal fibroblasts (BJ) obtained from ATCC (ATCC® CRL-2522™) were passaged in DMEM (Gibco) with antibiotics. Normal primary adult epidermal keratinocytes (HEK) purchased from CELL Applications, Inc., (Cat #C-12003) were maintained in manufacturer provided keratinocyte growth medium as recommended. Primary keratinocytes from C57BL mouse strain were purchased from CellBiologics (Cat #C57-6066K) and maintained as per manufacturer recommended Epithelial cell growth medium (Cat #M6621, CellBiologics). The mouse primary dermal fibroblasts were isolated from C57BL mouse strain (Cat #m-GFP-6067), and cultured in complete fibroblast medium (CellBiologics, Cat #M2267). […]
Human skin equivalents and mice skin tissues were harvested, embedded, and subjected to routine histology using Hematoxylin and Eosin. […] Quantification of collagen as a marker for ECM deposition was done by picrosirius red staining of paraffin embedded mouse skin tissues, as per previously published protocol.

B1: sAgrin: C-terminus recombinant Agrin fragment containing 8 amino acid 'Z8' insert and LG3 domain (SEQ ID NO: 7), His-tagged, expressed in E. coli (protein)
chain: DTLAFDGRTFVEYLNAVTESELANEIPVEKALQSNHFELSLRTEATQGLVLWSGKATERADYVALAIVDGHLQLSYNLGSQPVVLRSTVPVNTNRWLRVVAHREQREGSLQVGNEAPVTGSSPLGATQLDTDGALWLGGLPELPVGPALPKAYGTGFVGCLRDVVVGRHPLHLLEDAVTKPELRPCPTP
modifications: His tag
[1]; 0.8 KPa, day 5
  keratinocyte migration in soft matrix: strongly enhanced keratinocyte migration; also recorded: stimulated mouse keratinocyte migration over dermal fibroblasts
[1]; 30 KPa
  keratinocyte migration in stiff matrix, Agrin depleted KRTs and DFs: strongly restored keratinocyte migration
[1]; soft matrix 0.8 KPa
  keratinocyte migration, MMP12 depleted KRTs and DFs: not even rescued by sAgrin supplemented compliant matrices
[2]
  MMP12 gelatin and casein degradation catalytic activity: restored by sAgrin supplementation in a dose-dependent pattern
[3]; 0.8 kPa, sAgrin 10 μg/ml, 24 h
  collective migration rates on compliant substrates: significantly promoted migration rates that was comparable to those in stiff ECM alone
[3]; soft substrate, sAgrin 10 μg/ml, 4 h
  K17 expressing leader cells on soft substrates: stimulated collective migration by activating K17 expressing leader cells
[3]; stiff ECM with sAgrin, 4 h
  fraction of K17 expressing leader cells in Agrin depleted cells: significantly restored
[3]; stiff matrix with 10 μg/ml sAgrin
  migratory potential of Agrin depleted keratinocytes on stiff substrates: significantly rescued
[3]; stiff substrates (30 kPa), 20 μg/ml sAgrin
  K17 expressing migrating cells after MMP12 knockdown: not restored by the nourishment of sAgrin
[4]
  wound healing and migration of keratinocytes (rescue): significantly rescued the wound healing and the migration of keratinocytes
